Reference: PMC7980222, “Neuronal non-CG methylation is an essential target for MeCP2 function”

How the values were obtained:
MeCP2[MBD] [1] = target: T1, MeCP2[MBD] (mouse (fragment sequence identical in …, UniProt Q9Z2D6 77-167)); experiment: BLI; poly(dI-dC) 1 ug/ml; main text prints 63.17; BLI: 150 mM NaCl, 10 mM HEPES pH 8.0, 0.05% Tween20, poly(dI-dC) 1 ug/ml; MBD2 EMSA: 20 mM HEPES pH 7.9, 150 mM KCl, 8% Ficoll, 1 mM EDTA, 0.5 mM DTT, poly(dI-dC) 40 ng/ul, RT; N-term EMSA: 10 mM Tris-HCl pH 7.5, 150 mM KCl, 5% glycerol, 0.1 mM EDTA, 0.1 mg/ml BSA, 1 ug poly(dA-dT), on ice; pull-down at 4 C; conditions: protein: recombinant; tags: pET28 (NdeI/EcoRI), His tag (Ni-NTA purified; tag removal not mentioned); label: 5'-biotin on strand 1; 19 bp, 5' overhang 1 nt each end
MeCP2[MBD] [2] = target: T1, MeCP2[MBD]; experiment: BLI; poly(dI-dC) 1 ug/ml; BLI: 150 mM NaCl, 10 mM HEPES pH 8.0, 0.05% Tween20, poly(dI-dC) 1 ug/ml; MBD2 EMSA: 20 mM HEPES pH 7.9, 150 mM KCl, 8% Ficoll, 1 mM EDTA, 0.5 mM DTT, poly(dI-dC) 40 ng/ul, RT; N-term EMSA: 10 mM Tris-HCl pH 7.5, 150 mM KCl, 5% glycerol, 0.1 mM EDTA, 0.1 mg/ml BSA, 1 ug poly(dA-dT), on ice; pull-down at 4 C; conditions: protein: recombinant; tags: pET28 (NdeI/EcoRI), His tag (Ni-NTA purified; tag removal not mentioned); label: 5'-biotin on strand 1; 19 bp, 5' overhang 1 nt each end
MBD2[MBD] = MBD2[MBD] (human, UniProt Q9UBB5 139-224); experiment: EMSA; 2 uM protein; poly(dI-dC); BLI: 150 mM NaCl, 10 mM HEPES pH 8.0, 0.05% Tween20, poly(dI-dC) 1 ug/ml; MBD2 EMSA: 20 mM HEPES pH 7.9, 150 mM KCl, 8% Ficoll, 1 mM EDTA, 0.5 mM DTT, poly(dI-dC) 40 ng/ul, RT; N-term EMSA: 10 mM Tris-HCl pH 7.5, 150 mM KCl, 5% glycerol, 0.1 mM EDTA, 0.1 mg/ml BSA, 1 ug poly(dA-dT), on ice; pull-down at 4 C; conditions: protein: recombinant; tags: N-terminal His6 removed by TEV; residual N-terminal SM; label: 5'-FAM on strand 1; 19 bp, 5' overhang 1 nt each end
MM2[N-term] = MM2[N-term] (mouse, UniProt Q9Z2D6 1-93+Q9Z2E1:153-217+165-205, internal_change); experiment: EMSA; 0-4.5 uM protein; BLI: 150 mM NaCl, 10 mM HEPES pH 8.0, 0.05% Tween20, poly(dI-dC) 1 ug/ml; MBD2 EMSA: 20 mM HEPES pH 7.9, 150 mM KCl, 8% Ficoll, 1 mM EDTA, 0.5 mM DTT, poly(dI-dC) 40 ng/ul, RT; N-term EMSA: 10 mM Tris-HCl pH 7.5, 150 mM KCl, 5% glycerol, 0.1 mM EDTA, 0.1 mg/ml BSA, 1 ug poly(dA-dT), on ice; pull-down at 4 C; conditions: protein: recombinant; tags: C-terminal 6xHis; label: 32P (T4 PNK); blunt
MeCP2[N-term] WT [3] = target: T2, MeCP2[N-term] WT (mouse, UniProt Q9Z2D6 1-205); experiment: EMSA; 0-4.5 uM protein; not different from mCG (p = 0.613); BLI: 150 mM NaCl, 10 mM HEPES pH 8.0, 0.05% Tween20, poly(dI-dC) 1 ug/ml; MBD2 EMSA: 20 mM HEPES pH 7.9, 150 mM KCl, 8% Ficoll, 1 mM EDTA, 0.5 mM DTT, poly(dI-dC) 40 ng/ul, RT; N-term EMSA: 10 mM Tris-HCl pH 7.5, 150 mM KCl, 5% glycerol, 0.1 mM EDTA, 0.1 mg/ml BSA, 1 ug poly(dA-dT), on ice; pull-down at 4 C; conditions: protein: recombinant; tags: C-terminal 6xHis; label: 32P (T4 PNK); blunt
MeCP2[N-term] WT [4] = target: T2, MeCP2[N-term] WT; experiment: EMSA; 0-4.5 uM protein; BLI: 150 mM NaCl, 10 mM HEPES pH 8.0, 0.05% Tween20, poly(dI-dC) 1 ug/ml; MBD2 EMSA: 20 mM HEPES pH 7.9, 150 mM KCl, 8% Ficoll, 1 mM EDTA, 0.5 mM DTT, poly(dI-dC) 40 ng/ul, RT; N-term EMSA: 10 mM Tris-HCl pH 7.5, 150 mM KCl, 5% glycerol, 0.1 mM EDTA, 0.1 mg/ml BSA, 1 ug poly(dA-dT), on ice; pull-down at 4 C; conditions: protein: recombinant; tags: C-terminal 6xHis; label: 32P (T4 PNK); blunt

Chain of MBD2[MBD] (Q9UBB5 139-224): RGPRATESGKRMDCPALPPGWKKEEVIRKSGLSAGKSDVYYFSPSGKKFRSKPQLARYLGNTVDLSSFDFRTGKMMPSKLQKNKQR

B1: BLI mCAT probe (dsDNA)
DNA 1: TCTGGAACATAATTCTTCTA
DNA 2: ATAGAAGAATTATGTTCCAG
modifications: 5mC at CAT: C8 of strand 1 (underlining lost in text)
Q: B1 was tested. Which Kd (MeCP2[MBD] [1]) did it give?
A: 63.7 nM

B2: BLI mCAC probe (dsDNA)
DNA 1: TCTGGAACACAATTCTTCTA
DNA 2: ATAGAAGAATTGTGTTCCAG
modifications: 5mC at CAC: C8 of strand 1 (underlining lost in text)
Q: Which Kd (MeCP2[MBD] [2]) does the source give for B2 here?
A: 13.9 nM

B3: FAM mCG probe (dsDNA)
DNA 1: TCTGGAACGGAATTCTTCTA
DNA 2: ATAGAAGAATTCCGTTCCAG
modifications: 5mC at CG: C8 of strand 1 and probably C13 of strand 2 (underlining lost in text)
Q: Does B3 bind (MBD2[MBD])?
A: binds

B4: Bdnf mCAC probe (dsDNA)
DNA 1: AAGCATGCAATGCCCTGGAACACAATTCTTCTAATAAAAGATGTATCATTTTAAATGC
DNA 2: GCATTTAAAATGATACATCTTTTATTAGAAGAATTGTGTTCCAGGGCATTGCATGCTT
modifications: 5mC at central CAC: C21 of strand 1 (underlining lost in text)
Q: What does the source list for B4?
A: binding result (MM2[N-term]): no binding; binding result (MeCP2[N-term] WT [3]): binds

B5: Bdnf mCG probe (dsDNA)
DNA 1: AAGCATGCAATGCCCTGGAACGGAATTCTTCTAATAAAAGATGTATCATTTTAAATGC
DNA 2: GCATTTAAAATGATACATCTTTTATTAGAAGAATTCCGTTCCAGGGCATTGCATGCTT
modifications: 5mC at central CG: C21 of strand 1 and probably C37 of strand 2 (underlining lost in text)
Q: Does B5 bind (MeCP2[N-term] WT [4])?
A: binds

B6: BLI mCG probe (dsDNA)
DNA 1: TCTGGAACGGAATTCTTCTA
DNA 2: ATAGAAGAATTCCGTTCCAG
modifications: 5mC at CG: C8 of strand 1 and probably C13 of strand 2 (underlining lost in text)
Q: For B6, which Kd (MeCP2[MBD] [2]) is on record?
A: 22.2 nM
